The supplement of paper PMC10126150
± gives the standard deviation of the averaged measurements.

Tested on: ATP
Test: switch fluorescence ratio, 500 uM ATP over buffer (Cy3 cluster intensity, sum of 5 cycles each) (fold (ratio)); higher = stronger signal-on switching upon ATP binding; sequences stand for … in TCGTCGGCAGCGTCAGATGTGTATAAGAGACAGTTTTTTTTTTTTTTTTTTTTTTTTT…TC
Conditions: aptamer strand: ATP DNA aptamer (quencher-CACCTGGGGGAGTATTGCGGAGGAAGG + anchor), 100 nM annealed; ATP concentration: 500 uM
Method in brief: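 Clusters with intensities outside 100-1000 RFU were excluded. The remaining Cy3-labelled switching-strand clusters on a modified Illumina MiSeq flow-cell had been annealed to 100 nM quencher-labelled ATP aptamer and imaged in selection buffer, then after 15 min with 500 uM ATP at 22 °C, for five cycles separated by NaOH stripping and re-annealing. The fluorescence ratio, averaged per switch-domain sequence, is each cluster's summed target-cycle Cy3 intensity over its summed buffer-cycle Cy3 intensity.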
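Further: ATP exposure 15 min at 22 °C before imaging.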

Sequence | switch fluorescence ratio
TGATTGTTTG | 1.01 ± 0.034
TGATTTAATA | 0.984 ± 0.025
TGATTTATG | 1.01 ± 0.002
TGATTTATTC | 0.9632 ± 0.0032
TGATTTGGAC | 1.01 ± 0.061
TGATTTTCTC | 1.01 ± 0.048
TGATTTTGCC | 1.01 ± 0.018
TGATTTTTGT | 0.997 ± 0.021
TGCAAAAAGG | 1.03 ± 0.014
TGCAAATTGC | 0.997 ± 0.019
TGCAACCTCC | 2.29 ± 1.1
TGCAAGGGCG | 0.981 ± 0.021
TGCAATGATG | 1.04 ± 0.039
TGCAATGGGC | 1.21 ± 0.086
TGCAATGGGG | 1.12 ± 0.07
TGCAATTCGT | 1.13 ± 0.033
TGCAATTTCG | 1.07 ± 0.065
TGCAATTTTA | 1.03 ± 0.023
TGCACGATTG | 1.03 ± 0.03
TGCACGGCTT | 1.13 ± 0.03
TGCACTAGAA | 1.01 ± 0.017
TGCAGATCGG | 0.9927 ± 0.0028
TGCAGATTTT | 0.994 ± 0.033
TGCAGCATCT | 1.13 ± 0.032
TGCAGCTTGC | 1.25 ± 0.24

Sequence | switch fluorescence ratio
TGCAGGAATT | 1.09 ± 0.17
TGCAGGGGTT | 1.05 ± 0.02
TGCAGTGGGG | 1.014 ± 0.0085
TGCATATAAT | 1.018 ± 0.0014
TGCATATATA | 1.29 ± 0.36
TGCATGTCTC | 1.43 ± 0.46
TGCATGTCTT | 0.998 ± 0.033
TGCATTAATG | 0.989 ± 0.012
TGCATTAGGG | 0.993 ± 0.046
TGCATTCAGG | 1.02 ± 0.03
TGCATTCTTT | 0.9999 ± 0.0052
TGCATTTATG | 1.02 ± 0.043
TGCCAAGGTT | 1.02 ± 0.034
TGCCACTCTG | 1.025 ± 0.008
TGCCAGTGTT | 1.22 ± 0.32
TGCCAGTTTG | 0.9907 ± 0.0065
TGCCATAATG | 1.02 ± 0.0057
TGCCCATGGG | 0.9956 ± 0.0045
TGCCCTATTT | 0.986 ± 0.025
TGCCCTGCCT | 1.03 ± 0.024
TGCCGACGGG | 1.01 ± 0.019
TGCCGGAAGA | 1.02 ± 0.029
TGCCGGATTT | 1.02 ± 0.018
TGCCGGCTCG | 1.01 ± 0.012
TGCCGGTTTT | 1.01 ± 0.036

Sequence | switch fluorescence ratio
TGCCTATTTC | 1.02 ± 0.017
TGCCTCAGGG | 1.08 ± 0.021
TGCCTTATTA | 1.035 ± 0.0067
TGCCTTTTCG | 1.02 ± 0.057
TGCGAAAATT | 1.01 ± 0.08
TGCGAATTCT | 1.03 ± 0.011
TGCGAATTGT | 1.01 ± 0.012
TGCGACATGT | 0.969 ± 0.027
TGCGAGAAGG | 0.999 ± 0.011
TGCGCAAAAG | 1.01 ± 0.012
TGCGCATCTA | 1.038 ± 0.0098
TGCGCCAACT | 1.06 ± 0.011
TGCGCCCGGC | 1.031 ± 0.0027
TGCGCCCGGG | 1.033 ± 0.0076
TGCGCCGTGG | 1.02 ± 0.02
TGCGCTACGG | 1.08 ± 0.039
TGCGGAAGTT | 1.01 ± 0.023
TGCGGAGGGC | 1.01 ± 0.043
TGCGGATGTT | 0.953 ± 0.013
TGCGGCGGGT | 1.04 ± 0.012
TGCGGGAAGT | 1 ± 0.014
TGCGGGACT | 2.28 ± 1.8
TGCGGGATGA | 1.04 ± 0.018
TGCGGGCAAT | 1.1 ± 0.039
TGCGGGGAGC | 0.975 ± 0.041

Sequence | switch fluorescence ratio
TGCGGGGGAT | 1.02 ± 0.033
TGCGGGGGTT | 1.02 ± 0.03
TGCGGGGTCG | 1.01 ± 0.016
TGCGGGTGTG | 1.03 ± 0.021
TGCGGTAAAA | 1.03 ± 0.063
TGCGGTTTAG | 1.04 ± 0.016
TGCGTCAGGG | 0.974 ± 0.015
TGCGTCTTTG | 1.01 ± 0.034
TGCGTGCTGG | 0.985 ± 0.022
TGCGTTATAA | 1.02 ± 0.022
TGCGTTGGGG | 0.981 ± 0.019
TGCGTTTGGG | 1.05 ± 0.064
TGCGTTTTTA | 1 ± 0.043
TGCTAAATTA | 1.01 ± 0.011
TGCTAATAGT | 1.028 ± 0.0074
TGCTACAGGT | 1.04 ± 0.022
TGCTAGACTG | 1.03 ± 0.09
TGCTAGTTT | 0.98 ± 0.015
TGCTATATGG | 0.994 ± 0.022
TGCTATGAGG | 1.01 ± 0.043
TGCTCACGGT | 1.02 ± 0.041
TGCTCCTAAC | 1.3 ± 0.051
TGCTGAGGGC | 1.01 ± 0.013
TGCTGCAGTG | 0.966 ± 0.024
TGCTGCGCTT | 1.14 ± 0.081
